Source: the Human Domainome abundance scans (Beltran et al. 2025)
± gives the uncertainty stated by the source.

B1: Transcriptional regulator ERG, residues 117 to 197; numbered along this chain, P11308 (parent)
chain: NMTTNERRVIVPADPTLWSTDHVRQWLEWAVKEYGLPDVNILLFQNIDGKELCKMTKDDFQRLTPSYNADILLSHLHYLRE

Variants of: B1
Assay: abundance fitness (aPCA) (normalised: wild type 0, dead -1); higher = more abundant; growth selection in yeast, the domain comes from the species named
Conditions: Homo sapiens

Abundance fitness, by site and new letter:
D48: H -0.282 ± 0.11; M -0.412 ± 0.079; S -0.052 ± 0.044; V -0.378 ± 0.051; T 0.033 ± 0.052; R -0.183 ± 0.036; F -0.399 ± 0.13; W -0.969 ± 0.13; C -0.075 ± 0.064; L -0.521 ± 0.06; Y -1 ± 0.32; E -0.076 ± 0.045; G -0.114 ± 0.034; K -0.123 ± 0.062; Q -0.227 ± 0.059; N 0.022 ± 0.087; P -0.295 ± 0.081
K50: H -0.098 ± 0.084; A 0.044 ± 0.037; N 0.032 ± 0.063; V -0.009 ± 0.035; P -0.011 ± 0.054; L -0.054 ± 0.038; D -0.004 ± 0.065; G -0.089 ± 0.031; Q -0.022 ± 0.054; E 0.035 ± 0.048; T 0.014 ± 0.048; W -0.05 ± 0.04; R -0.032 ± 0.031; C 0.015 ± 0.059; I -0.1 ± 0.063
L43: K 0.071 ± 0.05; W -0.079 ± 0.04; M -0.063 ± 0.054; R -0.029 ± 0.032; Q 0.047 ± 0.052; Y -0.082 ± 0.072; G -0.019 ± 0.03; P -0.128 ± 0.064; I -0.217 ± 0.15; F -0.105 ± 0.064; T 0.07 ± 0.058; D -0.006 ± 0.059; S 0.041 ± 0.044; N -0.033 ± 0.096; H 0.027 ± 0.079; V -0.083 ± 0.035; C 0.08 ± 0.056
N40: A -0.201 ± 0.05; F -0.419 ± 0.1; D 0.072 ± 0.058; H -0.292 ± 0.077; I -0.317 ± 0.094; L -0.179 ± 0.044; Q -0.165 ± 0.063; R -0.255 ± 0.039; M -0.413 ± 0.078; Y -0.284 ± 0.086; T -0.213 ± 0.058; C -0.172 ± 0.071; S -0.236 ± 0.05; G -0.4 ± 0.044; P -0.153 ± 0.06
N46: R -0.106 ± 0.036; Y -0.082 ± 0.073; W -0.201 ± 0.057; S 0.012 ± 0.044; E 0.039 ± 0.053; V -0.617 ± 0.07; I -0.379 ± 0.13; C -0.066 ± 0.061; F -0.133 ± 0.077; K -0.104 ± 0.059; T -0.035 ± 0.069; Q -0.144 ± 0.078; L -0.251 ± 0.056; M -0.255 ± 0.066; D 0.023 ± 0.062; H -0.063 ± 0.089; P -0.244 ± 0.084
D38: S -0.054 ± 0.043; M -0.317 ± 0.067; K -0.091 ± 0.056; E -0.094 ± 0.045; Q -0.067 ± 0.05; G -0.004 ± 0.031; F -0.541 ± 0.17; T -0.052 ± 0.05; A -0.217 ± 0.041; H -0.049 ± 0.092; Y -0.293 ± 0.088; R -0.146 ± 0.036; L -0.756 ± 0.083; P 0.046 ± 0.054; V -0.755 ± 0.078; C -0.289 ± 0.085; W -0.398 ± 0.056; N -0.011 ± 0.076
I41: P -0.024 ± 0.067; H -0.075 ± 0.083; M -0.061 ± 0.056; K 0.012 ± 0.05; N -0.136 ± 0.081; C -0.034 ± 0.053; Y -0.057 ± 0.073; A -0.145 ± 0.044; W -0.159 ± 0.045; L -0.027 ± 0.038; D -0.157 ± 0.072; G -0.097 ± 0.035; R -0.187 ± 0.036; S -0.128 ± 0.048; E -0.053 ± 0.051; F 0 ± 0.076; V -0.021 ± 0.039; Q -0.112 ± 0.054; T -0.034 ± 0.057
G49: L -0.833 ± 0.096; A -0.837 ± 0.083; Q -0.836 ± 0.19; N -1.08 ± 0.31; S -0.737 ± 0.081; T -1.11 ± 0.2; W -1.04 ± 0.13; R -0.8 ± 0.069; F -0.816 ± 0.18; M -0.678 ± 0.14; I -1.4 ± 0.5; D -0.874 ± 0.14; V -0.895 ± 0.092; K -0.945 ± 0.15; Y -1.14 ± 0.25
L52: P -0.886 ± 0.12; C -0.928 ± 0.22; V -0.308 ± 0.069; W -0.809 ± 0.18; N -0.97 ± 0.17; Q -0.946 ± 0.17; M -0.324 ± 0.071; R -0.77 ± 0.11; K -0.728 ± 0.11; T -1.11 ± 0.17; H -0.689 ± 0.11; F -0.327 ± 0.07; S -0.932 ± 0.12; A -0.695 ± 0.12; E -0.367 ± 0.18; G -0.694 ± 0.17; Y -0.883 ± 0.13; I -0.126 ± 0.054
L36: Q -0.67 ± 0.12; W -0.253 ± 0.047; T -0.357 ± 0.083; F -0.038 ± 0.1; E -0.889 ± 0.12; N -0.75 ± 0.16; D -0.426 ± 0.099; M -0.038 ± 0.053; Y -0.375 ± 0.15; V -0.225 ± 0.04; G -0.563 ± 0.047; I -0.066 ± 0.089; S -0.829 ± 0.13; C 0.014 ± 0.065; R -0.81 ± 0.07; A -0.476 ± 0.055; P -1.08 ± 0.22
F44: V -0.523 ± 0.053; P -0.435 ± 0.1; C -0.215 ± 0.068; Q -0.181 ± 0.068; N -0.067 ± 0.082; R -0.278 ± 0.04; H -0.407 ± 0.15; A -0.195 ± 0.042; D -0.067 ± 0.073; L -0.217 ± 0.047; T -0.297 ± 0.065; I -0.497 ± 0.15; S -0.275 ± 0.052; W -0.072 ± 0.045; G -0.382 ± 0.037; Y -0.081 ± 0.1
Y34: E -0.2 ± 0.057; W -0.105 ± 0.05; V -0.341 ± 0.055; K -0.056 ± 0.07; P -0.523 ± 0.16; F -0.021 ± 0.087; H -0.06 ± 0.094; G -0.254 ± 0.041; R -0.211 ± 0.04; D -0.326 ± 0.1; S -0.278 ± 0.055; C -0.186 ± 0.077; I -0.171 ± 0.092; Q -0.28 ± 0.084; T -0.449 ± 0.084
Q45: M -0.083 ± 0.062; C -0.234 ± 0.082; S -0.005 ± 0.046; I -0.235 ± 0.085; D -0.096 ± 0.064; V -0.154 ± 0.04; G -0.042 ± 0.032; R -0.055 ± 0.034; H 0.07 ± 0.071; E 0.045 ± 0.043; P -0.407 ± 0.081; F -0.274 ± 0.11; L -0.241 ± 0.047; K 0.042 ± 0.053; Y -0.113 ± 0.082; W -0.292 ± 0.052; T -0.132 ± 0.062
E33: Y -0.151 ± 0.087
G35: F -0.276 ± 0.12; P -0.302 ± 0.07; L -0.069 ± 0.042; C -0.057 ± 0.062; R -0.027 ± 0.035; A 0.03 ± 0.038; K 0.044 ± 0.049; T 0.061 ± 0.052; M -0.047 ± 0.06; S 0.012 ± 0.039; Q 0.05 ± 0.05; D 0.063 ± 0.059; H 0.088 ± 0.073; E 0.009 ± 0.042; V -0.05 ± 0.035; W -0.273 ± 0.054; I -0.021 ± 0.077
I47: D -0.789 ± 0.21; W -0.653 ± 0.075; K -0.255 ± 0.066; R -0.609 ± 0.061; H -0.251 ± 0.13; N -0.492 ± 0.2; F -0.176 ± 0.086; Q -1.08 ± 0.25; A -0.521 ± 0.077; V 0.006 ± 0.042; C -0.163 ± 0.071; L -0.046 ± 0.045; S -0.751 ± 0.11; Y -0.022 ± 0.11; P -0.99 ± 0.21; E -0.712 ± 0.11; T -0.242 ± 0.068
L42: T -0.042 ± 0.053; R 0.056 ± 0.031; N 0.078 ± 0.067; D -0.068 ± 0.063; W -0.024 ± 0.038; A 0.014 ± 0.038; G 0.033 ± 0.029; S 0.012 ± 0.041; I -0.112 ± 0.087; F -0.154 ± 0.082; C -0.051 ± 0.052; V -0.027 ± 0.035; E -0.001 ± 0.043; Y -0.018 ± 0.072; K -0.008 ± 0.054
P37: Y -0.018 ± 0.053; A 0.022 ± 0.048; K 0.054 ± 0.054; I 0.106 ± 0.052; Q -0.044 ± 0.055; M 0.001 ± 0.049; T 0.072 ± 0.039; C 0.017 ± 0.06; W -0.123 ± 0.061; S 0.08 ± 0.039; H 0.016 ± 0.054; V -0.024 ± 0.044; G -0.026 ± 0.048; D -0.027 ± 0.069; R 0.014 ± 0.039; E 0.018 ± 0.06; N 0.072 ± 0.052; F -0.143 ± 0.049; L 0.001 ± 0.036
E51: R 0.001 ± 0.033; A 0.02 ± 0.04; N -0.092 ± 0.096; C -0.127 ± 0.058; T 0.026 ± 0.052; W -0.267 ± 0.042; F -0.277 ± 0.1; D -0.087 ± 0.062; Q -0.017 ± 0.049; H -0.113 ± 0.077; Y -0.026 ± 0.061; M -0.054 ± 0.056; K -0.025 ± 0.061; V -0.051 ± 0.037; G 0.022 ± 0.031; P -0.897 ± 0.14; S 0 ± 0.038; I -0.319 ± 0.16
C53: R -0.391 ± 0.072; P -1.06 ± 0.19; A -0.132 ± 0.048; E -0.471 ± 0.11; Q -0.269 ± 0.082; I -0.099 ± 0.051; G -0.262 ± 0.058; H -0.574 ± 0.09; N -0.228 ± 0.072; L 0 ± 0.038; D -0.325 ± 0.085; T -0.06 ± 0.046; S -0.15 ± 0.046; M 0.043 ± 0.058; F -0.235 ± 0.054
V39: S -0.116 ± 0.046; F 0.04 ± 0.074; Y -0.252 ± 0.088; K -0.242 ± 0.068; M -0.045 ± 0.052; I 0.007 ± 0.064; P -0.295 ± 0.072; W -0.334 ± 0.05; D -0.241 ± 0.072; T -0.002 ± 0.053; C 0.005 ± 0.053; A -0.169 ± 0.044; R -0.278 ± 0.036; N -0.144 ± 0.077; L 0.066 ± 0.037; Q -0.219 ± 0.063
